Assay results as given in patent publication US20060272039.
Positions count from the first letter of the chain named.

B1: Xpress-tagged JNK-1 (protein)
chain: MEERLSTTSSYPSHPGRSVEEDHNTLLASSSISSIIRGTRGHLNNFIESVGNWLVPSSSGRDDDAVSLDSCQSVYSPVRHHINSGTGGGILMEPSSIHVPENYYSVTIGEAQMVVLKRYQNLRLIGSGAQGIVCSAFDTVRNEQVAIKKLSRPFQNVTHAKRAYRELKLMSLVNHKNIIGILNCFTPQKKLDEFNDLYIVMELMDANLCQVIQMDLDHERLSYLLYQMLCGIRHLHSAGIIHRDLKPSNIVVRSDCTLKILDFGLARTAIEAFMMTPYVVTRYYRAPEVILGMGYKENVDVWSIGCIFGELIRGRVLFPGGDHIDQWTRIIEQLGTPDRSFLERLQPTVRNYVENRPRYQATPFEVLFSDNMFPMTADSSRLTGAQARDLLSRMLVIDPERRISVDDALRHPYVNVWFDEIEVYAPPPLPYDHNMDVEQNVDSWREHIFRELTDYARTHDIYS
B2: kinase-dead JNK-1 (APF) (protein)
chain: B1 chain with T276A, Y278F

Tests used:
[1] = target: His-DAF-16 (N-terminal fragment), O16850
Chain of His-DAF-16 (N-terminal fragment), O16850 (O16850 whole entry, looked up, the tested form may be a part): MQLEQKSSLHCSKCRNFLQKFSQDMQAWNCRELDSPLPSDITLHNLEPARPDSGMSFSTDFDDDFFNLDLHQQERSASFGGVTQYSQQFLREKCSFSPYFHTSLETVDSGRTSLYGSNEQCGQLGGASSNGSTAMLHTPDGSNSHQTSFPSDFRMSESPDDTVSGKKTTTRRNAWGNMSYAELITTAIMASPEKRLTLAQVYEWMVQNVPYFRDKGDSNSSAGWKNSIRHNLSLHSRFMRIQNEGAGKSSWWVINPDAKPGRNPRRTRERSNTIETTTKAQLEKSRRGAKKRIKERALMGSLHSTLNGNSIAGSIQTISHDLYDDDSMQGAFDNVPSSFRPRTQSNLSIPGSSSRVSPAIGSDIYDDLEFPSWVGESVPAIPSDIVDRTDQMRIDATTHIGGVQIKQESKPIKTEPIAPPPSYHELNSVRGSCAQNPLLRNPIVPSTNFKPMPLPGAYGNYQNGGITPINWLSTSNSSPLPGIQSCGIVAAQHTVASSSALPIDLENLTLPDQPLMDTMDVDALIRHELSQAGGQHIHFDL

[2] = target: His-DAF-16 (C-terminal fragment), O16850
Chain of His-DAF-16 (C-terminal fragment), O16850 (O16850 whole entry, looked up, the tested form may be a part): as above

Chain of GST-c-Jun (1-79) (P05412 1-79): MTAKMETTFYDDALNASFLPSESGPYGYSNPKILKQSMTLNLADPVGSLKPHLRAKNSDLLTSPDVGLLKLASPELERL

Row | Protein | in vitro kinase assay (phosphorylation, [γ-32P]ATP, autoradiography) (GST-c-Jun (1-79)) | in vitro kinase assay (phosphorylation, [γ-32P]ATP, autoradiography) [1] | in vitro kinase assay (phosphorylation, [γ-32P]ATP, autoradiography) [2]
1 | B1 | JNK-1 phosphorylates DAF-16 as well as the mammalian c-Jun protein used as a positive control | Upon activation of JNK-1 by UV, JNK-1 phosphorylates DAF-16 | The phosphorylation was only observed with the N-terminal (83-307) fragment of DAF-16, but not with the C-terminal (255-470) fragment (data not shown)
2 | B2 | – | The kinase-dead JNK-1 (APF) failed to phosphorylate DAF-16 | –
